Assay results: US10919953 (dated 2021)
Substitutions are numbered along the chain they refer to.

T1: FcgRIIb (human, UniProt P31994)
T1 chain: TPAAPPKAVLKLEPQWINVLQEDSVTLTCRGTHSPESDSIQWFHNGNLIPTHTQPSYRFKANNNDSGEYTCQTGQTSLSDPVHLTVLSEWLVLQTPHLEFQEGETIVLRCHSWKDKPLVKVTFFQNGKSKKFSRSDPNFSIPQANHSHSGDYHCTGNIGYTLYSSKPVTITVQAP

T2: FcgRIIaR (human, UniProt P12318)
T2 chain: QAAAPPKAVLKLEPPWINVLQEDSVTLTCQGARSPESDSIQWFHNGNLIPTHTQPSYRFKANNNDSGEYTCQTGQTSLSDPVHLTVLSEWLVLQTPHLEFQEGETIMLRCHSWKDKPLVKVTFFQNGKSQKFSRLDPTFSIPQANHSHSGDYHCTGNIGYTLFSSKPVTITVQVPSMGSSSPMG

T3: FcgRIa (human, UniProt P12314)
T3 chain: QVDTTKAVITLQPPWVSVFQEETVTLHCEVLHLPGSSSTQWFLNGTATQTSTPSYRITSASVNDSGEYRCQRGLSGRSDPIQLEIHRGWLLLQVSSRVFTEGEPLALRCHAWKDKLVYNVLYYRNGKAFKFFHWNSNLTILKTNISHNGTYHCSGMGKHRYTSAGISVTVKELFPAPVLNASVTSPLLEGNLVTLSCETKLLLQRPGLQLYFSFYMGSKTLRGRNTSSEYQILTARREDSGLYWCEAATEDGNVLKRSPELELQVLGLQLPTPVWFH

B1: IL6R-BP257/IL6R-L (antibody)
chain 1: QVQLQESGPGLVKPSETLSLTCAVSGHSISHDHAWSWVRQPPGEGLEWIGFISYSGITNYNPSLQGRVTISRDNSKNTLYLQMNSLRAEDTAVYYCARSLARTTAMDYWGEGTLVTVSSASTKGPEVFPLAPSSKSTSGGTAALGCLVKDYFPEPVTVSWNSGALTSGVHTFPAVLQSSGLYSLSSVVTVPSSSLGTQTYICNVNHKPSNTKVDKKVEPKSCDKTHTCPPCPAPDLLGDDSVFLFPPKPKDTLMISRTPEVTCVVVDVSDEDGEVKFNWYVDGVEVHNAKTKPREEQYNSTYRVVSVLTVLHQDWLNGKEYKCKVSNKALPRPIEKTISKAKGQPREPQVYTLPPSRDELTKNQVSLTCLVKGFYPSDIAVEWESNGQPENNYKTTPPVLDSDGSFFLYSKLTVDKSRWQQGNVFSCSVMHEALHNHYTQESLSLSP
chain 2: not shown
B2: IL6R-BP260/IL6R-L (antibody)
chain 1: B1 chain 1 with Y298D
chain 2: not shown
B3: IL6R-BP256/IL6R-L (antibody)
chain 1: B1 chain 1 with E126D
chain 2: not shown
B4: IL6R-BP259/IL6R-L (antibody)
chain 1: B1 chain 1 with E126D, Y298D
chain 2: not shown
B5: IL6R-AP029/IL6R-BP410/IL6R-L (antibody)
chain 1: B1 chain 1 with E126S, D270E, Y298D, D358K, H437R, E441K
chain 2: B1 chain 1 with E126S, L237T, D270E, Y298D
chain 3: not shown
B6: IL6R-BP408/IL6R-L (antibody)
chain 1: B1 chain 1 with E126S, L237Q, D270E, Y298D
chain 2: not shown
B7: IL6R-BP404/IL6R-L (antibody)
chain 1: B1 chain 1 with E126S, L236Y, D270E, Y298D
chain 2: not shown
B8: IL6R-BP419/IL6R-L (antibody)
chain 1: B1 chain 1 with E126S, L237F, D270E, Y298D
chain 2: not shown
B9: IL6R-AP029/IL6R-BP408/IL6R-L (antibody)
chain 1: B1 chain 1 with E126S, D270E, Y298D, D358K, H437R, E441K
chain 2: B1 chain 1 with E126S, L237Q, D270E, Y298D
chain 3: not shown
B10: IL6R-AP029/IL6R-BP407/IL6R-L (antibody)
chain 1: B1 chain 1 with E126S, D270E, Y298D, D358K, H437R, E441K
chain 2: B1 chain 1 with E126S, L237D, D270E, Y298D
chain 3: not shown
B11: IL6R-AP029/IL6R-BP409/IL6R-L (antibody)
chain 1: B1 chain 1 with E126S, D270E, Y298D, D358K, H437R, E441K
chain 2: B1 chain 1 with E126S, L237E, D270E, Y298D
chain 3: not shown
B12: IL6R-BP225/IL6R-L (antibody)
chain 1: B1 chain 1 with E126S, D235E, L236Y, D270H, G273P, K328D
chain 2: not shown
B13: IL6R-BP249/IL6R-L (antibody)
chain 1: B1 chain 1 with E126S, L236Y, Y298D
chain 2: not shown
B14: IL6R-BP220/IL6R-L (antibody)
chain 1: B1 chain 1 with E126S, Y298D, R332K
chain 2: not shown
B15: IL6R-BP233/IL6R-L (antibody)
chain 1: B1 chain 1 with E126S, D235E, L236Y, D270H, R332K
chain 2: not shown
B16: IL6R-BP208/IL6R-L (antibody)
chain 1: B1 chain 1 with E126S
chain 2: not shown
B17: IL6R-BP264/IL6R-L (antibody)
chain 1: B1 chain 1 with E126S, D270E, Y298D
chain 2: not shown

Molecular target: T1, FcgRIIb
Experiment: SPR

| Binder | Kd [nM] |
| --- | --- |
| B1 | 430 |
| B2 | 380 |
| B3 | 87 |
| B4 | 110 |

Molecular target: T2, FcgRIIaR
Experiment: SPR

| Binder | Kd [nM] |
| --- | --- |
| B5 | 660 |
| B6 | 34000 |
| B7 | 360 |
| B8 | 830 |
| B9 | 860 |
| B10 | 630 |
| B11 | 630 |

Molecular target: T1, FcgRIIb
Experiment: SPR
Remark: another data set of the same source

| Binder | Kd [nM] |
| --- | --- |
| B5 | 22 |
| B6 | 720 |
| B7 | 11 |
| B8 | 26 |
| B9 | 26 |
| B10 | 19 |
| B11 | 15 |

Molecular target: T3, FcgRIa
Experiment: SPR

| Binder | Kd [nM] |
| --- | --- |
| B12 | 65 |
| B13 | 7 |
| B14 | 20 |
| B15 | 70 |

Molecular target: T2, FcgRIIaR
Experiment: SPR
Remark: another data set of the same source

| Binder | Kd [nM] |
| --- | --- |
| B1 | 1300 |
| B3 | 730 |
| B4 | 860 |
| B16 | 850 |

Molecular target: T3, FcgRIa
Experiment: SPR
Remark: another data set of the same source

| Binder | Kd [nM] |
| --- | --- |
| B5 | 17 |
| B6 | 140 |
| B7 | 10 |
| B8 | 40 |
| B9 | 20 |
| B17 | 7.4 |
| B10 | 13 |
| B11 | 19 |

Molecular target: T3, FcgRIa
Experiment: SPR
Remark: another data set of the same source

| Binder | Kd [nM] |
| --- | --- |
| B1 | 0.31 |
| B2 | 0.31 |
| B3 | 2 |
| B4 | 3.1 |
